How the values were obtained:
[1] = biological target: biotinylated peptide Bio-… containing 11 amino acid residues from the N terminus of the Ebola VP40 (Ebola virus (EBOV))
[2] = biological target: T1, truncated (31-326) Ebola VP40 (Ebola virus (EBOV), UniProt Q05128 31-326); assay: Far Western
T1 sequence: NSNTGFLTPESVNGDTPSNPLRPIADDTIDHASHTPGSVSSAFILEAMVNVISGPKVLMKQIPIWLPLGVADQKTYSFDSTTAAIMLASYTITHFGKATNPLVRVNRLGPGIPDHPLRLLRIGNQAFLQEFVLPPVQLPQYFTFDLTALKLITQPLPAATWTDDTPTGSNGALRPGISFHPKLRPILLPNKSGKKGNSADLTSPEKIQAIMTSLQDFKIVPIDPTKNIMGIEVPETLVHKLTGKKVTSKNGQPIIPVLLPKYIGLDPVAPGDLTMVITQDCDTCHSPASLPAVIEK

B1: purified TSG101 protein that contains only the UEV domain (other)
chain: AVSESQLKKMVSKYKYRDLTVRETVNVITLYKDLKPVLDSYVFNDGSSRELMNLTGTIPVPYRGNTYNIPICLWLLDTYPYNPPICFVKPTSSMTIKTGKHVDANGKIYLPYLHEWKHPQSDLLGLIQVMIVVFGDEPPVFSRP
Q: How did the Kd [1] turn out when B1 was run?
A: 2000 nM

Q: Does B1 bind [2]?
A: no binding

— patent publication US20080187528A1 (FUNCTIONAL GENETICS, published 2008)
